In patent US7718626B2, “ErbB3 binding protein compositions and methods of use” (University of Maryland, Baltimore, priority 2005, dated 2010):

Legend:
[1] = test system: androgen-responsive genes in LNCaP cells; assay: Microarray gene expression profiling of LNCaP cells stably transfected with ebp1; type: cell-based, human; settings: ebp1-overexpressing LNCaP cells vs controls
Procedure: Microarray Analysis: First and second strand cDNA were synthesized from 5-15 μg of total RNA at Genome Explorations (Nashville, Tenn.) using the SuperScript Double-Stranded cDNA Synthesis Kit (Gibco Life Technologies, Gaithersburg, Md.) and an oligo-dT24-T7 (5′-GGCCAGTGAATTGTAATACGACTCACTATAGGGAGGCGG-3′) (SEQ ID NO: 3) primer according to the manufacturer's instructions. cRNA was synthesized labeled with biotinylated UTP and CTP by in vitro transcription using the T7 promoter-coupled, double-stranded cDNA as template and the T7 RNA Transcript Labeling Kit (ENZO Diagnostics Inc., Farmingdale, N.Y.). The fragmented cRNA was hybridized for U133A oligonucleotide arrays (Affymetrix, Santa Clara, Calif.) containing ˜33,000 full-length annotated genes, together with additional probe sets designed to represent EST sequences. The arrays were then stained with phycoerythrein-conjugated streptavidin (Molecular Probes, Eugene, Oreg.), and the fluorescence intensities were determined using a laser confocal scanner (Hewlett-Packard, Palo Alto, Calif.). The scanned images were analyzed using Microarray software (Affymetrix). Sample loading and variations in staining were standardized by scaling the average of the fluorescent intensities of all genes on an array to constant target intensity for all arrays used. The signal intensity for each gene was calculated as the average intensity difference, represented by [E(PM−MM)/(number of probe pairs)], where PM and MM denote perfect-match and mismatch probes. Data analysis was conducted using Microarray Suite 5.0 (Affymetrix) following user guidelines. Only genes with a minimum expression level of 500 were included in this analysis. […] AR-regulated genes include the Androgen Receptor (AR), PSA (kallikrein 3), Kallikrein 2, POV-1, TMPRSS2, and prostate-derived factor.
Ectopic expression of Ebp1 downregulates androgen-regulated genes: Gene expression profiling of LNCaP cells stably transfected with ebp1 was used to determine the range of androgen-dependent genes affected by Ebp1 overexpression. These cells overexpress Ebp1 protein between two- and three-fold (Zhang et al., 2002, Repression of Androgen Receptor Mediated Transcription by the ErbB-3 Binding Protein Ebp1, Oncogene, 21: 5609-5618). Changes in gene expression were measured using microarray analysis of 33,000 transcripts on the Affymetrix U133A chip. To compile a list of differentially regulated genes, only those genes that were activated or repressed at least 3-fold (p <0.05, 500 minimum expression units) were included. […] Forty-one genes were induced and 126 were repressed. Seventy-two of these genes have HUGO approved names. […] These include the Androgen Receptor (3.7 fold decrease), PSA (3.7 fold decrease) as previously reported (Zhang et al., 2002, Repression of Androgen Receptor Mediated Transcription by the ErbB-3 Binding Protein Ebp1, Oncogene, 21: 5609-5618), Kallikrein 2 (3.2 fold decrease), POV-1 (5.0 fold decrease), TMPRSS2 (3.2 fold decrease), and prostate-derived factor (3.2 fold decrease). The Kallikrein 2 gene is regulated by AR, predominantly expressed in prostate tissue, secreted by LNCaP cells, and 78% homologous to PSA. […] The TMPRSS2 gene is androgen-regulated and also highly expressed in prostate and prostate cancer (Afar et al., 2001, Catalytic Cleavage of the Androgen-Regulated TMPRSS2 Protease Results in its Secretion by Prostate and Prostate Cancer Epithelia, Cancer Res., 61:1686-1692).

LNCaP cells = assay: Soft agar colony growth assay; type: cell-based, human; settings: highest cell concentration tested, ten days
Procedure: Cell Growth Assays: To measure growth in complete media, cells (2×10^4) were seeded in triplicate in individual wells of 12-well tissue culture plates in RPMI-1640 with 10% FBS and cultured for the indicated number of days. Cells were trypsinized, stained with Trypan Blue (0.4%), and counted in a hemacytometer. For soft agar growth assays, increasing concentrations of cells (as indicated) were plated in 35 mm petri dishes in complete media and 0.3% Difco Bacto Agar over an 0.5% agar layer. Colonies were counted after 10 days of incubation. For studies assessing the effect of dihydrotestosterone (DHT) on cell growth, cells (2×10^4) were plated in 12-well plates in complete media. After a 24-hour attachment period, the medium was replaced with steroid-free medium [phenol red-free RPMI 1640 and 5% charcoal-stripped FBS (Sigma)] for 48 hours. The final concentration of testosterone in the steroid-reduced media was less than 5 pM. After 48 hours of steroid depletion, cells were re-fed with fresh steroid-reduced medium with or without the indicated concentrations of DHT and/or bicalutamide (10 μM), and total cell numbers were assessed 7 days later.
The soft agar growth of ebp1 transfectants was also examined. LNCaP vector controls and ebp1 transfectants were seeded at concentrations between 1×10^4 and 1×10^5 cells per dish and colony growth in soft agar assessed ten days later. […]

B1: Ebp1: ErbB3 binding protein (SEQ ID NO: 2), tested by stable ectopic expression (ebp1 transfection) in LNCaP cells (protein)
chain: MSGEDEQQEQTIAEDLVVTKYKMGGDIANRVLRSLVEASSSGVSVLSLCEKGDAMIMEETGKIFKKEKEMKKGIAFPTSISVNNCVCHFSPLKSDQDYILKEGDLVKIDLGVHVDGFIANVAHTFVVDVAQGTQVTGRKADVIKAAHLCAEAALRLVKPGNQNTQVTEAWNKVAHSFNCTPIEGMLSHQLKQHVIDGEKTIIQNPTDQQKKDHEKAEFEVHEVYAVDVLVSSGEGKAKDAGQRTTIYKRDPSKQYGLKMKTSRAFFSEVERRFDAMPFTLRAFEDEKKARMGVVECAKHELLQPFNVLYEKEGEFVAQFKFTVLLMPNGPMRITSGPFEPDLYKSEMEVQDAELKALLQSSASRKTQKKKKKKASKTAENPTSGETLEENEAGD
modifications: Homo Sapien
Androgen Receptor expression, fold decrease [1]: 3.7 fold decrease | Kallikrein 2 expression, fold decrease [1]: 3.2 fold decrease | POV-1 expression, fold decrease [1]: 5.0 fold decrease | PSA expression, fold decrease [1]: 3.7 fold decrease | TMPRSS2 expression, fold decrease [1]: 3.2 fold decrease | prostate-derived factor expression, fold decrease [1]: 3.2 fold decrease | decrease of colony growth in soft agar (LNCaP cells): approximately 90%
